Experiment: yeast display, Sf9 membrane polyspecificity reagent, FACS + sequencing; frameworks hold sequencing errors
Method in brief: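 Genes from sorted yeast were amplified by colony PCR, read by MiSeq 2 × 250 sequencing and filtered on CDR length. These cells carried a synthetic nanobody library in Saccharomyces cerevisiae BJ5465 and were sorted by FACS into low and high (top ~1%) gates on anti-HA and streptavidin fluorescence. Polyreactivity is labelled according to the gate of origin.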

QVQLVESGGGLVQAGGSLRLSCAAYGSIIGVNAMGWYRPAPGKERELVAAISSTGGSTYYADSVKGRFTISRDNAKNTVYLQMNSLKPEDTAVYYCNTDYSKSIGDGYAGFDYWGQGTQVTVSS
polyreactivity (PSR sort gate): low polyreactivity

QVQLVESGGGLVQAGGSLRLSCAAYGSIISYTMGWYRQAPGKERELVAAITSGRITYYADSVKGRFTISRDNAKNTVSLQMNRLKQEDTAVYYCNNDVGFTRPLYYWGQGTQVTVSS
polyreactivity (PSR sort gate): low polyreactivity

QVQLVESGGGLVQAGGSLRLSCAAYGSILLRYAMGWYRQAPGKERELVAAIRTIGASTYYADSVKGRFTISRDNAKNTVYLQMNSLKPEDTAVYYCNGYLAEVLQLGKCRLYDYWGQSTQVTVSS
polyreactivity (PSR sort gate): low polyreactivity

QVQLVESGGGLVQAGGSLRLSCAAYGSILRTYAMGWYRQAPGKERELVAAISSSGGSTYYADSVKGRFTISRDNAKNTVYLQMNSLKPEDTAVYYCAARYRYYYTRYDYWGQGTQVTVSS
polyreactivity (PSR sort gate): high polyreactivity

QVQLVESGGGLVQAGGSLRLSCAAYGSLFDSNAMGWYRQAPRKERELVAAITVSGTSTYYADSVNGRFTISRDNEKNTVYLQMNSLKPEYTEVYYCAAAQEYLTDHDYWGQGTQVTVSS
polyreactivity (PSR sort gate): low polyreactivity

QVQLVESGGGLVQAGGSLRLSCAAYGSNFVFNAMGWYRQAPGKERELVAAISNGDGTNYADSVKGRFTISRDNAKNTVYFQINSLKPEDTAVYYCAAVWTTQIVIEYDYWGQGSQVTVSS
polyreactivity (PSR sort gate): low polyreactivity

QVQLVESGGGLVQAGGSLRLSCAAYGSSFNHYSMGWYRQAPGKERELVAAISWNGGSTYYADSVKGRFTISRDNAKNTVYLQMNSLKPEDTAVYYCNALVTTTPRYDYWGQGTQVTVSS
polyreactivity (PSR sort gate): high polyreactivity

QVQLVESGGGLVQAGGSLRLSCAAYGSTFASYSMGWYRQAPGKERELVADISKSGTRTYYADSVKGRFTISRDNAKNTVYLQMNSLKPEDTAVYYCATGQYLRTSRFYYWGHGTQVTVSS
polyreactivity (PSR sort gate): high polyreactivity

QVQLVESGGGLVQAGGSLRLSCAAYGSTFEYYVMGWYRQAPGKERELVAAISGSGGGTYYADSVKGRFTISRDNAKNTVSLQMNSLKPEDTAVYYCAAVATLEKYDYWGQGNQVTVSS
polyreactivity (PSR sort gate): low polyreactivity

QVQLVESGGGLVQAGGSLRLSCAAYGSTFGHYAMGWDRQAPGKERELVAAISSSGGSTYYADSVKGRFTISRDNAKNTVYLQMNSLKPEDTAVYYCAARYYHYSYAFGYWGQGTQVTVSS
polyreactivity (PSR sort gate): high polyreactivity

QVQLVESGGGLVQAGGSLRLSCAAYGSTFRYNPLGWYRQAPGKETELVAANTSGGGTNSADSVKGRFTISRDNAKNTVYLQMNSLKPEDTAVYYCAAPWGLGSELLKRDYWGQGTQVTVSS
polyreactivity (PSR sort gate): low polyreactivity

QVQLVESGGGLVQAGGSLRLSCAAYGSTFYANAMGWYRQAPGKERELVAAISSGGSTYYADSVKGRFTISRYNAKNTVYLQMNSLKPEDTAVYYCAKPFYSYRYGFGYWGQGTQVTVSS
polyreactivity (PSR sort gate): low polyreactivity

QVQLVESGGGLVQAGGSLRLSCAAYGSTVSSNAMGWYRQAPGKERELVAGISSSDVGTYYADSVKGRFTISRDYANNTVYLEMNSLKPDDTAVYYCNADHTGQFPSKLFPLGDNYWGQGTQVTVSS
polyreactivity (PSR sort gate): low polyreactivity

QVQLVESGGGLVQAGGSLRLSCAAYGYTLYHNAMGWYRQAPGKERELVAAITSSGGRTYYADSVKGRFTISRDNAKNTVYLQMNRLKPDDTAVYYCNAVVWVYSISLSYTGTKYEYWGQGTQVTVSS
polyreactivity (PSR sort gate): high polyreactivity

QVQLVESGGGLVQAGGSLRLSCADSGFIFSLYAMGWYRQAPGKERELVAAISKRGGSTNYADSVKGRFTISRDYAKNTVYLQMNSLKPEDTAVYYCAKARPGFLYDHWVQGTQVTVSS
polyreactivity (PSR sort gate): high polyreactivity

QVQLVESGGGLVQAGGSLRLSCADSGFISGGNDMGWNRQAPGKEREFVAAIDNTGSTYYADSVKGRFTISRDNAKNTVYLQMNSLKPEDSAVYYCNAEVSEDYVDNDFWGQGTQVTVSS
polyreactivity (PSR sort gate): low polyreactivity

QVQLVESGGGLVQAGGSLRLSCADSGFTFDYYTMGWYRQAPGKDRELVAAITYSGGITYYADSVKGRFTISRDNAKNTVYLQMNSLKPEDTAVYYCNARYSPRTGRGRHVTYYYWGQGTQVTVSS
polyreactivity (PSR sort gate): high polyreactivity

Source: the nanobody polyreactivity screen of Harvey et al. (2022)
